This note sets out measurements from PMC12282080 (2025).

Where a chain is given by its changes, count along the chain named.

What is called koff is the first-order rate constant of dissociation. A higher koff goes with a short-lived complex. Usually Kd stands for the constant that tells how readily two partners part at equilibrium. A lower Kd goes with a tighter complex.

The target of assay [1] is T1, SFTSV Gn glycoprotein (G19-K452, C3 genotype) (SFTSV (severe fever with …)). The assay can be described thus: BLI. (In general: Biolayer interferometry detects binding as a change in optical thickness at a sensor tip.)
Assay [2] concerns the target T1, SFTSV Gn glycoprotein (G19-K452, C3 …). The assay can be described thus: BLI. This is another data set of the same source.

B1: SD22 monoclonal antibody (human IgG1) (antibody, V domains shown)
VH: QVQLVESGGGVVQPGRSLRLSCAASGFTFSGFGMHWVRQAPGKGLEWVALISYDGSDTYYSDSVKGRFTISRDNSKNTLYLQLKSLRPDDTAVYYCVGDRDYFGSGFFDHWGQGTLVTVSS
VL: DIQMTQSPSSLSASIGDRVTITCRASRHITNHLNWYQHKPGRAPKLLIYEASNLQAGVPSRFSGSGSGTDFTFTISSLQPEDFATYYCQQYDNLPPAFGGGTKVDIK
B1: the off-rate constant (koff) in assay [1] is 4.01e-05 s⁻¹. The same molecule displayed a Kd in assay [2] of 0.205 nM.

B2: SD4-X monoclonal antibody (human IgG1) (antibody, V domains shown)
VH: QVQLVESGGGVVQPGRSLRLSCAASGFTFSSYGMHWVRQAPGKGLEWVAVISYDGSNKYYADSVKGRFTISRDNSKNTLYLQMNSLRAEDTAVYYCAKDRDYYGSGFFDYWGQGTLVTVSS
VL: DIQMTQSPSSLSASVGDRVTITCQASQDISNHLNWYQEKPGKVPKLLIYEASNVETGVPSRFSGSGSGTDFTFTISSLQPEDIATYYCQQYDNLPYTFGQGTKLEIK
B2: the dissociation rate constant (koff) in assay [1] is 0.000108 s⁻¹. This molecule had a Kd in assay [2] of 1.11 nM.

B3: SD4-S monoclonal antibody (human IgG1) (antibody, V domains shown)
VH: B2 VH with V12L, S31G, N57E, Y59N, A61G, M83I, A88T, T91R, Y103F
VL: DIQMTQSPSSLSASVGDRVTITCQASQDITKYLNWYQQKPGKAPKLLIFEASNLETGVPSRFSGSGSGTDFTFTISSLQPEDFATYYCQQYGDFPLTFGGGTKVEIK
In assay [1], B3 showed a koff of 2.9e-05 s⁻¹. The molecule further yielded a dissociation constant Kd in assay [2] of 0.196 nM.

B4: SD12 monoclonal antibody (human IgG1) (antibody, V domains shown)
VH: EVQLLESGGGLVQPGGSLRLSCAASGFIFSSYAMSWVRQAPGKGLEWVSAISGSGGSTYYADSVKGRFTISRDNSKNTLYLQMNSLRDEDTAVYYCAKDRSYVSSGFFDDWGQGTLVTVSS
VL: B2 VL with H32Y, E38Q, K39R, V43A, Y49F, V54L, D92E, P95L
With B4, the off-rate constant (koff) in assay [1] was 0.000179 s⁻¹. In assay [2], this molecule had a dissociation constant (Kd) of 2.37 nM.

B5: SD4 monoclonal antibody (human IgG1) (antibody, V domains shown)
VH: B2 VH with T28P, S31G, N57E, Y59N, A88V, F108Y
VL: DIQMTQSPSSLSASVGDRVTITCQASQHISNHLNWYQQKPGTAPTLLIYEASNLETGVPSRFSGSGSGTDFSFTISSLRPEDFATYYCQQYDNFPLTFGPGTTMDIK
In assay [1], B5 gave a koff of 1.18e-05 s⁻¹.
